Data taken from PMC11198818, “Positive charges promote the recognition of proteins by the chaperone SlyD from Escherichia coli” (PLOS ONE, 2024).
Where a chain is given by its changes, count along the chain named.

Key:
Assay in all cases: ITC; VP-ITC (MicroCal), 30°C, 10 mM potassium phosphate buffer pH 7.6 or 7.8; SlyD or its variant 30 uM in the calorimetric cell, HiPIP precursor (RR-HiPIP) injected: 100 uM, 2x 22 injections of 10 uL (Fig 4); 200 uM, 23 injections of 10 uL (Fig 3)
Conditions in all cases: both partners purified
[1] = target: T1, SlyD F96N, C-terminally hexahistidine-tagged (E. coli, UniProt P0A9K9 1-196, F96N)
T1 construct: FKBP-type peptidyl-prolyl cis-trans isomerase SlyD, E. coli; the tag is fused to the C-terminal domain; not shown: His6, C-terminal, kept
T1 sequence: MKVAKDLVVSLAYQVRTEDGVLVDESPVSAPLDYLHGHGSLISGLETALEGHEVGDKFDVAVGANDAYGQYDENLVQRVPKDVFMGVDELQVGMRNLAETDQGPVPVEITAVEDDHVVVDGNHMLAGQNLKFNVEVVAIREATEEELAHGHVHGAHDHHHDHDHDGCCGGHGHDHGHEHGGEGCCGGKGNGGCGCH

[2] = target: T2, SlyD D115A, C-terminally hexahistidine-tagged (E. coli, UniProt P0A9K9 1-196, D115A)
T2 construct: FKBP-type peptidyl-prolyl cis-trans isomerase SlyD, E. coli; the tag is fused to the C-terminal domain; not shown: His6, C-terminal, kept
T2 sequence: T1 sequence with N96F, D115A

[3] = target: T3, SlyD E89A, C-terminally hexahistidine-tagged (E. coli, UniProt P0A9K9 1-196, E89A)
T3 construct: FKBP-type peptidyl-prolyl cis-trans isomerase SlyD, E. coli; the tag is fused to the C-terminal domain; not shown: His6, C-terminal, kept
T3 sequence: T1 sequence with E89A, N96F

[4] = target: T4, SlyD F96A, C-terminally hexahistidine-tagged (E. coli, UniProt P0A9K9 1-196, F96A)
T4 construct: FKBP-type peptidyl-prolyl cis-trans isomerase SlyD, E. coli; the tag is fused to the C-terminal domain; not shown: His6, C-terminal, kept
T4 sequence: T1 sequence with N96A

[5] = target: T5, SlyD F84A, C-terminally hexahistidine-tagged (E. coli, UniProt P0A9K9 1-196, F84A)
T5 construct: FKBP-type peptidyl-prolyl cis-trans isomerase SlyD, E. coli; the tag is fused to the C-terminal domain; not shown: His6, C-terminal, kept
T5 sequence: T1 sequence with F84A, N96F

[6] = target: T6, SlyD from Escherichia coli, C-terminally hexahistidine-tagged, wild type (E. coli, UniProt P0A9K9 1-196)
T6 construct: FKBP-type peptidyl-prolyl cis-trans isomerase SlyD, E. coli; the tag is fused to the C-terminal domain; also called WT; wt; not shown: His6, C-terminal, kept
T6 sequence: T1 sequence with N96F

B1: HiPIP precursor (RR-HiPIP) from Allochromatium vinosum (natural protein)
chain: MSDKPISKSRRDAVKVMLGTAAAIPMINLVGFGTARASAPANAVAADDATAIALKYNQDATKSERVAAARPGLPPEEQHCANCQFMQADAAGATDEWKGCQLFPGKLINVNGWCASWTLKAG
modifications: HiPIP precursor; fully folded, [4Fe-4S] cluster presumed; signal peptide retained
B1 was tested, and the Kd [1] was 8850 ± 2780 nM, the “stoichiometry N” value [1] was 0.628 ± 0.036 and the Kd [2] was 270 ± 20 nM. For the same binder, the “stoichiometry N” value [2] was 0.541 ± 0.026, the Kd [3] was 380 ± 40 nM and the “stoichiometry N” value [3] was 0.404 ± 0.004. The Kd [4] was 4880 ± 540 nM, the “stoichiometry N” value [4] was 0.66 ± 0.013 and the “stoichiometry N” value [5] was 0.766 ± 0.011. The “stoichiometry N” value [6] was 0.71 ± 0.002.
